Usually Kd stands for the equilibrium constant for the complex coming apart. Read a high Kd as lower affinity. A word on the Ki: it is the dissociation constant of the complex between target and ligand, obtained from inhibition or displacement.

Details in all cases: protein: commercial
Series [1] addresses T1, bovine trypsin (Bos taurus (bovine), UniProt P00760 24-246). Briefly: bead pull-down; ELISA/pull-down: PBS pH 7.4, 5 mM MgCl2, 10 mM KCl, 0.01% Tween20, RT; SPR and inhibition (TAAB): 0.1 M Tris pH 7.5, 150 mM NaCl, 5 mM CaCl2, 10 mM KCl, 5 mM MgCl2, 0.02% Tween 20; inhibition at 37 C (full-length aptamer screen in selection buffer at RT). (In general: An ELISA detects its analyte on a solid surface through an enzyme-linked reagent.)

Series [2] has as its target T1, bovine trypsin. Briefly: SPR; kon 1.03e6 M-1s-1, koff 3.15e-3 s-1; TAAB; ELISA/pull-down: PBS pH 7.4, 5 mM MgCl2, 10 mM KCl, 0.01% Tween20, RT; SPR and inhibition (TAAB): 0.1 M Tris pH 7.5, 150 mM NaCl, 5 mM CaCl2, 10 mM KCl, 5 mM MgCl2, 0.02% Tween 20; inhibition at 37 C (full-length aptamer screen in selection buffer at RT).
Series [3] deals with T1, bovine trypsin. Briefly: enzyme inhibition (mixed mode); BAPNA, TAAB, 37 C; ELISA/pull-down: PBS pH 7.4, 5 mM MgCl2, 10 mM KCl, 0.01% Tween20, RT; SPR and inhibition (TAAB): 0.1 M Tris pH 7.5, 150 mM NaCl, 5 mM CaCl2, 10 mM KCl, 5 mM MgCl2, 0.02% Tween 20; inhibition at 37 C (full-length aptamer screen in selection buffer at RT).

T1 sequence (P00760 24-246): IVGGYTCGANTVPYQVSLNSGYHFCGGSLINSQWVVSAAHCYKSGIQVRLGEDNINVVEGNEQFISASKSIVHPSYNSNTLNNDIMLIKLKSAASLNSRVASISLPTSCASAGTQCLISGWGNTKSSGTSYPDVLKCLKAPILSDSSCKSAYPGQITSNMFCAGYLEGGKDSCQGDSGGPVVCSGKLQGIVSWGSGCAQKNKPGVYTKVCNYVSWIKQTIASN

B1: T22 (ssDNA)
DNA: CATGCTTCCCCAGGGAGATGGGTGTGAGGTTAGGAAATCTGTGTTGAACACTGCTTTCAGGGGGCTTGGGAGGAACATGCGTCGCAAAC
B1: the binding result in series [1] is “binds”.

B2: T24 (ssDNA)
DNA: CATGCTTCCCCAGGGAGATGGGTGTGAGGTTAGTTTGCGGGAACTAGAATTCCTGGCAAAGGGGGGCCTGGAGGAACATGCGTCGCAAAC
On to B2, for which the Kd in series [2] stood at 3.06 nM. For the same molecule, the Ki in series [3] stood at 176 ± 16 nM.

B3: T21 (ssDNA)
DNA: CATGCTTCCCCAGGGAGATGGGTGTGGGGTTAGGTCACTTTATGGTTGGTTCCATTGTGTCAGGGAGCCGGGAGGAACATGCGTCGCAAAC
Regarding B3, in series [1], the binding result is given as “binds”.

B4: T59 (ssDNA)
DNA: CATGCTTCCCCAGGGAGATGGGTGTGAGGTTAGTTTGCGGTCCTGGCAAAGGGGGGCCTGGAGGAACATG
With B4, in series [3], the inhibitory constant (Ki) turned out to be 475 ± 48 nM.

(Values after PMC6366424, “Development of a novel, high-affinity ssDNA trypsin inhibitor”.)
